The experiment addresses SynNotch receptor (CD8a signal-Myc-LaG17-Notch1 minimal transmembrane core-tTA) (mouse) (UniProt Q01705).
Sequence of UniProt Q01705 (Q01705 whole entry): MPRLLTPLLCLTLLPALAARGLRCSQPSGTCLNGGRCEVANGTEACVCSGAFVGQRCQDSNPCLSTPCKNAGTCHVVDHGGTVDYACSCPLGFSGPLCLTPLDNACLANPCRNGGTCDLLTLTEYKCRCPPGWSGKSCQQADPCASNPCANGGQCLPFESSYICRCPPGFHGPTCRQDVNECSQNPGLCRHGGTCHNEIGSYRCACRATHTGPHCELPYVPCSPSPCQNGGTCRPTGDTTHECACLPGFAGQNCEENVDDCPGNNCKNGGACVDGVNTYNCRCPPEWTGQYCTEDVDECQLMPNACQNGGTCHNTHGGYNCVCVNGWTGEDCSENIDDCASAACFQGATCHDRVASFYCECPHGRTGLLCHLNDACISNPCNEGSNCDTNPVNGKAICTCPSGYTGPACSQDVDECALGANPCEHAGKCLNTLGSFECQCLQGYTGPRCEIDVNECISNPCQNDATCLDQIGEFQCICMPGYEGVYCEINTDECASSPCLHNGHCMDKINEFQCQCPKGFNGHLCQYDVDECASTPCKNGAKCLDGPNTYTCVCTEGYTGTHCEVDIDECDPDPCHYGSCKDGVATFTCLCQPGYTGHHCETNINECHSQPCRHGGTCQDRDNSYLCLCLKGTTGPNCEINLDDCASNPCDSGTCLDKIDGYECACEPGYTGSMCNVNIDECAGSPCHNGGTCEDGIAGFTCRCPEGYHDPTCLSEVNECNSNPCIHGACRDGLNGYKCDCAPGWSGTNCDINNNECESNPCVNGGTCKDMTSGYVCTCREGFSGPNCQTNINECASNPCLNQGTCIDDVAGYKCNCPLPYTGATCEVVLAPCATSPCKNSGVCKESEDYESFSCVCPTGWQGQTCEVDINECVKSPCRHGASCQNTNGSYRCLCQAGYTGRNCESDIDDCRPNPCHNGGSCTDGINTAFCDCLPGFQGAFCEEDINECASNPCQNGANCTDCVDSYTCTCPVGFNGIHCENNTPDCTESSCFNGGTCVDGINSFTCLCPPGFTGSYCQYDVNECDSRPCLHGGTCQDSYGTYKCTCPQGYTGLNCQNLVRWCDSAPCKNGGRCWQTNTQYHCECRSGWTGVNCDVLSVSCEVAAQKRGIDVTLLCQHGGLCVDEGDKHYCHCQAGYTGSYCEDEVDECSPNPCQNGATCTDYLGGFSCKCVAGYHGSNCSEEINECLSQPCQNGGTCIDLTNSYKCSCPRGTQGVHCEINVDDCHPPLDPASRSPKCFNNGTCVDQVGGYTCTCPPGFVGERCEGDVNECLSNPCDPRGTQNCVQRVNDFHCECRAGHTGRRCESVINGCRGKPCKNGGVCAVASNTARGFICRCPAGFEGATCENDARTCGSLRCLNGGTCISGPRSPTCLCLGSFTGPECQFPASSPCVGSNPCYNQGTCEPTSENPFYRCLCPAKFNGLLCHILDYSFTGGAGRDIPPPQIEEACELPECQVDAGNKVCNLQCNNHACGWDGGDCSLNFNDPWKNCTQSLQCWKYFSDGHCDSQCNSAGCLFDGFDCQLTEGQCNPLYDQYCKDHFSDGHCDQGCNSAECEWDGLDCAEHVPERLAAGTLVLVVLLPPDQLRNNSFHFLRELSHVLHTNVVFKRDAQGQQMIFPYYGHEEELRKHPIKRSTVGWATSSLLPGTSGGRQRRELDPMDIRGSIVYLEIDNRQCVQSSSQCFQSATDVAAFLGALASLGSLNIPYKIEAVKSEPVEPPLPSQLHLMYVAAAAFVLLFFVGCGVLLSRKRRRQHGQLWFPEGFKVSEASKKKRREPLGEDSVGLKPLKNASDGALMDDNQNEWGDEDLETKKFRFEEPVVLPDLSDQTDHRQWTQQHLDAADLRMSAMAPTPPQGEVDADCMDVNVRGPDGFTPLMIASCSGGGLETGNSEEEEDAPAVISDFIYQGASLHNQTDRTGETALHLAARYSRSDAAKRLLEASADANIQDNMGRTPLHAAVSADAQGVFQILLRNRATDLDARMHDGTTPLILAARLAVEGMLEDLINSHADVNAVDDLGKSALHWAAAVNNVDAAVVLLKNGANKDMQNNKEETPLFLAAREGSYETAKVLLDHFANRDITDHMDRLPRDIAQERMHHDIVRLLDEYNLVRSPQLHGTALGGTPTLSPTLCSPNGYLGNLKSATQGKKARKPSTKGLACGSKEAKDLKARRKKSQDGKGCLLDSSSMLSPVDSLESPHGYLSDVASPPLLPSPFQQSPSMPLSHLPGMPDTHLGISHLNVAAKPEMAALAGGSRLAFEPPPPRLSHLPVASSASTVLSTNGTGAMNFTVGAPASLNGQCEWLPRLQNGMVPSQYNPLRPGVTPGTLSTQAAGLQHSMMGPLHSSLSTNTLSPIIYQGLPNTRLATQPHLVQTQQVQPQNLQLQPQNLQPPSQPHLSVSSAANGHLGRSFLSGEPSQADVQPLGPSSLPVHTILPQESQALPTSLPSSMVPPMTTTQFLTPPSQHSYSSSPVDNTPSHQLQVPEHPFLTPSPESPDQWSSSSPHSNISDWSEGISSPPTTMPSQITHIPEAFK

Regarding “membrane-tethered extracellular EGFP (IgGK signal-EGFP-PDGFRB TMD) (ligand)”, the percentage of STC receiver cells that induce mCherry after 24 h of co-culture with different proportions of sender cells (20% to 90% sender cells) was more than 90%.

Source of the values: publication PMC9270970.
